Measured values: patent publication US20060026702A1, “Phosphoinositide 3-kinase mediated inhibition of GPCRs” (DUKE UNIVERSITY, priority 2002, published 2006)

Molecular target: T1, V2R-GFP (Homo sapiens, UniProt P30518)
T1 construct: expressed in transfected cells; host or cells: HEK 293
Assay: Endocytosis of V2R-GFP in live cells by confocal microscopy
Type: cell-based
Settings: AVP 10 μM; HEAT co-expressed
Protocol: Disruption of the endogenous βARK1/PI3K interaction by the HEAT protein attenuated V2R endocytosis. Endocytosis of V2R-GFP in live cells was monitored for 20 min following AVP (10 μM) stimulation in the absence or presence of HEAT protein co-expression using confocal microscopy. HEK 293 cells were transfected with either GFP-V2R (2 μg)/pRK5 (2 μg) or GFP-V2R (2 μg)/HEAT (2 μg). V2R internalization was followed in the same cell after agonist stimulation. Prior to agonist, the distribution of V2R-GFP was found distinctly at the plasma membrane (FIG. 14, 0 min). Following agonist treatment, there was redistribution of the V2R-GFP into membrane puncta consistent with entry into clathrin coated pits. With time, this was followed by the formation of cytoplasmic aggregates, and then with the complete loss of membrane fluorescence (FIG. 14, 6-24 min). […] In FIG. 14, panels on the left represent cells transfected with the V2R-GFP alone (panels show the same cell monitored at 0, 6, 12, 18, and 24 min following stimulation). Panels on the right represent cell transfected with V2R-GFP and HEAT (panels show the same cell monitored as above). In the absence of HEAT, agonist caused the internalization V2R5 as shown by the formation of distinct cytoplasmic aggregates and complete loss of membrane fluorescence.

B1: HEAT: 197 amino acid HEAT domain of PI3Kγ, FLAG epitope-tagged (SEQ ID NO: 2), overexpressed in cells (protein, listed as Homo sapiens)
chain: MDYKDDDDKHPIALPKHQPTPDDRVRAEMPNQLRKQLEAIIATDTAEDKELLWHFRYESLKHPKAYPKLFSSVKWGQQEIVAKTYQLLARREVWDQSALDVGLTMQLLDCNFSDENVRAIAVQKLESLEDDDVLHYLLQLVQAVKFEPYHDSALARFLLKRGLRNKRIGHFLFWFLRSEIAQSRHYQQRFAVILEAYLRGCGTA
modifications: FLAG tag
  receptor endocytosis (redistribution of V2R-GFP): completely inhibited
